Biological target: T1, 2-Quinolinylcarbonyl-L-Valinyl-L-Aspartyl (methyl ester)-L-Valinyl-L-Alanyl-L-Aspartyl (methyl ester) 2,6-difluorophenyl ester
T1 chain: VDVAD

B1: human recombinant caspase-1 (protein)
chain: NPAMPTSSGSEGNVKLCSLEEAQRIWKQKSAEIYPIMDKSSRTRLALIICNEEFDSIPRRTGAEVDITGMTMLLQNLGYSVDVKKNLTASDMTTELEAFAHRPEHKTSDSTFLVFMSHGIREGICGKKHSEQVPDILQLNAIFNMLNTKNCPSLKDKPKVIIIQACRGDSPGVVWFKDSVGVSGNLSLPTTEEFEDDAIKKAHIEKDFIAFCSSTPDNVSWRHPTMGSVFIGRLIEHMQEYACSCDVEEIFRKVRFSFEQPDGRAQMPTTERVTLTRCFYLFPGH
With B1 the “in vitro cleavage of Ac-YVAD-AMC by the recombinant caspase” value was “no cross reactivity against other caspases”.

B2: human recombinant caspase-10 (protein)
chain: VKTFLEALPQESWQNKHAGSNGNRATNGAPSLVSRGMQGASANTLNSETSTKRAAVYRMNRNHRGLCVIVNNHSFTSLKDRQGTHKDAEILSHVFQWLGFTVHIHNNVTKVEMEMVLQKQKCNPAHADGDCFVFCILTHGRFGAVYSSDEALIPIREIMSHFTALQCPRLAEKPKLFFIQACQGEEIQPSVSIEADALNPEQAPTSLQDSIPAEADFLLGLATVPGYVSFRHVEEGSWYIQSLCNHLKKLVPRMLKFLEKTMEIRGRKRTVWGAKQISATSLPTAISAQTPRPPMRRWSSVS
B2 was tested, and the “in vitro cleavage of Ac-IETD-AMC by the recombinant caspase” value was “no cross reactivity against other caspases”.

B3: human recombinant caspase-6 (protein)
chain: AFYKREMFDPAEKYKMDHRRRGIALIFNHERFFWHLTLPERRGTCADRDNLTRRFSDLGFEVKCFNDLKAEELLLKIHEVSTVSHADADCFVCVFLSHGEGNHIYAYDAKIEIQTLTGLFKGDKCHSLVGKPKIFIIQACRGNQHDVPVIPLDVVDNQTEKLDTNITEVDAASVYTLPAGADFLMCYSVAEGYYSHRETVNGSWYIQDLCEMLGKYGSSLEFTELLTLVNRKVSQRRVDFCKDPSAIGKKQVPCFASMLTKKLHFFPKSN
B3 was tested, and the “in vitro cleavage of Ac-VEID-AMC by the recombinant caspase” value was “no cross reactivity against other caspases”.

B4: human recombinant caspase-3 (protein)
chain: SGISLDNSYKMDYPEMGLCIIINNKNFHKSTGMTSRSGTDVDAANLRETFRNLKYEVRNKNDLTREEIVELMRDVSKEDHSKRSSFVCVLLSHGEEGIIFGTNGPVDLKKITNFFRGDRCRSLTGKPKLFIIQACRGTELDCGIETDSGVDDDMACHKIPVEADFLYAYSTAPGYYSWRNSKDGSWFIQSLCAMLKQYADKLEFMHILTRVNRKVATEFESFSFDATFHAKKQIPCIVSMLTKELYFYH
For B4, the “in vitro cleavage of Ac-DEVD-AMC by the recombinant caspase” value was “no cross reactivity against other caspases”.

B5: human recombinant caspase-5 (protein)
chain: DQKITSVKPLLQIEAGPPESAESTNILKLCPREEFLRLCKKNHDEIYPIKKREDRRRLALIICNTKFDHLPARNGAHYDIVGMKRLLQGLGYTVVDEKNLTARDMESVLRAFAARPEHKSSDSTFLVLMSHGILEGICGTAHKKKKPDVLLYDTIFQIFNNRNCLSLKDKPKVIIVQACRGEKHGELWVRDSPASLALISSQSSENLEADSVCKIHEEKDFIAFCSSTPHNVSWRDRTRGSIFITELITCFQKYSCCCHLMEIFRKVQKSFEVPQAKAQMPTIERATLTRDFYLFPGN
With B5 the “in vitro cleavage of Ac-WEHD-AMC by the recombinant caspase” value was “no cross reactivity against other caspases”.

B6: human recombinant caspase-9 (protein)
chain: MDEADRRLLRRCRLRLVEELQVDQLWDALLSRELFRPHMIEDIQRAGSGSRRDQARQLIIDLETRGSQALPLFISCLEDTGQDMLASFLRTNRQAAKLSKPTLENLTPVVLRPEIRKPEVLRPETPRPVDIGSGGFGDVGALESLRGNADLAYILSMEPCGHCLIINNVNFCRESGLRTRTGSNIDCEKLRRRFSSLHFMVEVKGDLTAKKMVLALLELAQQDHGALDCCVVVILSHGCQASHLQFPGAVYGTDGCPVSVEKIVNIFNGTSCPSLGGKPKLFFIQACGGEQKDHGFEVASTSPEDESPGSNPEPDATPFQEGLRTFDQLDAISSLPTPSDIFVSYSTFPGFVSWRDPKSGSWYVETLDDIFEQWAHSEDLQSLLLRVANAVSVKGIYKQMPGCFNFLRKKLFFKTS
With B6 the “in vitro cleavage of Ac-LEHD-AMC by the recombinant caspase” value was “no cross reactivity against other caspases”.

B7: human recombinant caspase-8 (protein)
chain: SESQTLDKVYQMKSKPRGYCLIINNHNFAKAREKVPKLHSIRDRNGTHLDAGALTTTFEELHFEIKPHDDCTVEQIYEILKIYQLMDHSNMDCFICCILSHGDKGIIYGTDGQEAPIYELTSQFTGLKCPSLAGKPKVFFIQACQGDNYQKGIPVETDSEEQPYLEMDLSSPQTRYIPDEADFLLGMATVNNCVSYRNPAEGTWYIQSLCQSLRERCPRGDDILTILTEVNYEVSNKDDKKNMGKQMPQPTFTLRKKLVFPSD
With B7 the “in vitro cleavage of Ac-IETD-AMC by the recombinant caspase” value was “no cross reactivity against other caspases”.

B8: human recombinant caspase-7 (protein)
chain: AKPDRSSFVPSLFSKKKKNVTMRSIKTTRDRVPTYQYNMNFEKLGKCIIINNKNFDKVTGMGVRNGTDKDAEALFKCFRSLGFDVIVYNDCSCAKMQDLLKKASEEDHTNAACFACILLSHGEENVIYGKDGVTPIKDLTAHFRGDRCKTLLEKPKLFFIQACRGTELDDGIQADSGPINDTDANPRYKIPVEADFLFAYSTVPGYYSWRSPGRGSWFVQALCSILEEHGKDLEIMQILTRVNDRVARHFESQSDDPHFHEKKQIPCVVSMLTKELYFSQ
B8 was tested, and the “in vitro cleavage of Ac-DEVD-AMC by the recombinant caspase” value was “no cross reactivity against other caspases”.

B9: human recombinant caspase-4 (protein)
chain: QISPNKKAHPNMEAGPPESGESTDALKLCPHEEFLRLCKERAEEIYPIKERNNRTRLALIICNTEFDHLPPRNGADFDITGMKELLEGLDYSVDVEENLTARDMESALRAFATRPEHKSSDSTFLVLMSHGILEGICGTVHDEKKPDVLLYDTIFQIFNNRNCLSLKDKPKVIIVQACRGANRGELWVRDSPASLEVASSQSSENLEEDAVYKTHVEKDFIAFCSSTPHNVSWRDSTMGSIFITQLITCFQKYSWCCHLEEVFRKVQQSFETPRAKAQMPTIERLSMTRYFYLFPGN
For B9, the “in vitro cleavage of Ac-WEHD-AMC by the recombinant caspase” value was “no cross reactivity against other caspases”.

B10: caspase-2 in brain of ischemic rat pups (protein)
chain: GPPCLQVKPCTPEFYQAHYQLAYRLQSQPRGLALVMSNVHFTGEKDLEFRSGGDVDHTTLVTLFKLLGYNVHVLYDQTAQEMQEKLQNFAQLPAHRVTDSCIVALLSHGVEGGIYGVDGKLLQLQEVFRLFDNANCPSLQNKPKMFFIQACRGDETDRGVDQQDGKNHAQSPGCEESDAGKEELMKMRLPTRSDMICGYACLKGNAAMRNTKRGSWYIEALTQVFSERACDMHVADMLVKVNALIKEREGYAPGTEFHRCKEMSEYCSTLCQQLYLFPGYPPT
In the case of B10, the “caspase-2 activity (VDVAD-AMC cleavage) and caspase-2 processing (western blot) in brain homogenates” value is reported as “it inhibited caspase-2 activity as well as caspase-2 processing in brain of ischemic rat pups”.
